Test results taken from the domain aggregation screens of Martell et al. (2025).

Experiment: soluble fraction after stress (log2 fold change); higher = more stays soluble; pooled small domains, quantitative proteomics
Settings: stress: 50 degC
How it was run: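 Pooled custom libraries of small protein domains were each held under stress at 50°C. The read-out, high-throughput quantitative proteomics, tracked how much of each protein stayed soluble. This is reported as a base-two log fold change used to indicate aggregation propensity. Higher values mean more protein remains in solution.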

First: HMIQYRKILELHFKDISQRTISTSVGSSRNTVSDVIKRSEQLGLERLTDNMNNRWLEEFLFPEKQ
Second: HMDSGLLSAREREVAGLVLSGMTYAEIGEAIFISPRTAEHHIARIRRRLGATSRTDLIAKLQAIVGID
The “soluble fraction (log2)” value of the first is lower: -4.17 for the first, -3.45 for the second.

First: HMASLSEREHDVAVLILQGKTYAEIGQAIFISPRTVEHHVASIRRRLEAKSRSDLIAKLRLTIGGTED
Second: HMKREETLKALATKNANYVARSGRRYSFEPMNPYERRIIHTAVQEIEGVTSRSIGSGMDRRVLIEPEGGV
The “soluble fraction (log2)” value of the first is lower: -2.18 for the first, -0.194 for the second.

Going from “HMAEEGEQAASNTAAQAEDRAAELAAAGEKGKQITKTLVAEFGIPKNEAYRLALDAVAAVKAER” to “HMGADPTTWPEIDAFVGRVAVTATGLFPSGQVEIDGRRFEARLAFGVAEPGARVVVRRRTDFGLLVEKETR”, the “soluble fraction (log2)” value falls from -0.105 to -0.389.

Going from “HMEDDPIYEQVMIFLLDKQITSAPELERRFKITHQRAIELLAQMEKTGIVSTMGHAGKRDVLT” to “HMSEIYVDDINRKILYLLSQGIKTKSLLEHIPLSMSGIEKRKKQLKMLFSVEDGKDETLLEMAKEKGF”, the “soluble fraction (log2)” value falls from -0.827 to -1.45.

“HMVEDPADNQKAADAVIKKISEIGEVTESSENLIKEARASYDALTDNQKELVTNYDVLVQAEAQLENIKD” and “HMKVNIGDQVYNQMKDQIMSGVWVPGEKIPSENQLMEVFGVSRGTVRQAIQKLSAVGLLETRRGEGSYVGQ” are within 0.2 log units of each other in “soluble fraction (log2)” value: -0.0306 for the first, -0.115 for the second.

First: HMGVARGQAQVTTRQHVVQPGETLYQISKQYGVTVAEILRYNADIEDNTVKVGQTLQIPTPLP
Second: HMAVKTEHGRIWKALPEGQDGYREDVPMFTSKSMYDGSAGIGIFLIRLYEATSDERWLKEAEEAAAHII
The “soluble fraction (log2)” value of the first is higher: ≥ 0.62 for the first, 0.351 for the second.

Going from “HMLDPIQEGKKMLNSRLSGFGITPNTRLMNKLLAAYNISSREEFYGRIGAGIEDLSTLREVLLKGT” to “HMEGLEKDDGGYYFEKDNGERARNEWVYVEYEGKGYWYYMTDYGYPLRSAITPDGYKVNSNGHWIDEGN”, the “soluble fraction (log2)” value falls from -0.284 to -0.825.

“HMKKKVDSENLLLDILKQMQPQASTNVLRKMLTNQRISVDDQIIHRAKHVVQEGQTVEIHPKP” and “HMATGIKAVDNVFGWMNLEQVAKTVGLDIPSVLRASGLPEDTPVDISIKKIPGVDDEELKDSLRQYIEKS” are within 0.2 log units of each other in “soluble fraction (log2)” value: 0.00763 for the first, 0.0213 for the second.

Compared with “HMDLRIKEIMSERNVTSAWLAEKVGISKVAVSNIVTGKSSPSLDNLLKIADALNVSITTLIG”, “HMQSYHVGDKVTIKNSASHWATGQSIYNGVKGHTYKIIQTNGHKLLLDQVISWINDGDVYKAGS” is higher in “soluble fraction (log2)” value: -0.824 for the first, -0.492 for the second.

Going from “HMKISELAKKVIASGRVTQWAKHPHIYFVNGMRKVAIELDVNGVFSISMRYYPYDPADRELVENLIRGD” to “HMEDWTPERFVGAFVSGGPALRDEILLAATKDLSHAQATRLLKLAEARGLVHRSQPGPSERVRFVVARK”, the “soluble fraction (log2)” value rises from -2.53 to -0.258.

“HMDIIIEEGIDESLSTDDAILDLLGRASDAFSNAQKALLEGDLGSYQKLIEQAERLVKKATELLGENN” and “HMGKPPNNRIHRAKRDYALNLVKEHYPDFGPTLAAEKLAEHHGFTVSRETLRKWMIEDGIWLSRKQRR” are within 0.2 log units of each other in “soluble fraction (log2)” value: -0.0938 for the first, -0.123 for the second.

Compared with “HMETLTPQEHKVLLLAVKGRTNGEIASELGIAQNTVKNHLAHIYAKMGVGNRTELASEYLRRIH”, “HMAISQYGSQSDEVTKIQTRLKAWGYFDGPVTAYYGSQTTEAVKKFQQKHGLSATGVADAKTLELIGLP” is lower in “soluble fraction (log2)” value: 0.0726 for the first, -0.36 for the second.

“HMTSGTLTLTQDTPVYTEPNKDGGVAYVQPQGDIQWDKYIFANGDNWYSFVQKNRDQEVRFYIAYSDVG” and “HMAKTGMDALVGRRVVLTKAIAGEGEGLVAVDGDVWRATSPAGSAIPKGTEVRITGYRSIVLEVEPI” are within 0.2 log units of each other in “soluble fraction (log2)” value: -0.0923 for the first, -0.184 for the second.

Compared with “HMFLTPLEEARLVIEEIVIPKNIAVDLSPRPSALRKQQHELIAHYQLKSFSVGNERTKRLRILPKVI”, “HMLPKTVTLIDPVSGVAKTVTWVPALTLYSARRKAGLNRVPNTATIDRGGRELTGKRGSTLQPGDVVRW” is lower in “soluble fraction (log2)” value: -0.114 for the first, -0.425 for the second.

First: HMKISDTITEKILTDNNFSMELAKKIGIQQGSLLSSIRRNRDSRILRLWEAVMFYKEQGYTEEEIFTDY
Second: HMAGTELASIKEIQSLVDRSEEALSARNFFWPKDKSESMLLSFRNMFSRLKLTKMDVQIFHGIFKVMEKS
The “soluble fraction (log2)” value of the first is lower: -1.27 for the first, -0.0116 for the second.

Compared with “HMTVSIDSLFDKFEDLQEQGLGDKTEEGQELRGLIRAFIEQEHLSVRITRSTSNQELLDMIEEAMQ”, “HMGFLTGNTQGEVNRKTKNQMVNIFLPTTPNPTSGFLLFVPKKDILRLTMTVEEGIKMIISAGMLTPS” is higher in “soluble fraction (log2)” value: -1.45 for the first, -0.173 for the second.

First: HMNEISLKEITIEEDHPWRDKKIKELDLKEHILVAMIRRKDQDIIPNGETKIYKDDILVIYD
Second: HMNMMIIHVNGEKYSFQEPITISELILKLELDSRKIAIEYNLEILPRSLFEITSIKNGDKIEIVHFI
The “soluble fraction (log2)” value of the first is higher: 0.144 for the first, -2.37 for the second.

Compared with “HMQTTEDMEINAKVDEYLREMYLWNDEYKTLNLDHNKGYEDFFYDALGSMTTNTLDKKTYVGSDGKTYYNL”, “HMTEGDRLARRILRLVRNKPNGYPEVELMKATVLDWNHFQRSISSLEMAGILERRDPGDGTPPVWVEKR” is lower in “soluble fraction (log2)” value: -0.248 for the first, -0.688 for the second.

Going from “HMSSGNLESLLNKLHNEDYFVRLDAVKALGALGDPGAIDYLIEMLSENGIMRGWVANSLAALGEAQWKKII” to “HMVETVQVVGAGQDIMPGSRINYSSLHYITVPRSYFHEDMFAKNNLVVGRIARAYVAKGEPLLAASLMPK”, the “soluble fraction (log2)” value falls from -1.94 to -2.54.

Compared with “HMEEKTMNLPPSAKLVYKILSYEGNLTQKEIINMTYLPERTVRHALELLLGKRLITRQAYLNDARQSVYG”, “HMNEIESFSNTKNPFSLTFKTSKDSSYKVEASSNLKKWTTLSQIKGTGNPITFTESRRILFRKQYYRVTLS” is higher in “soluble fraction (log2)” value: -1.66 for the first, -0.197 for the second.

Compared with “HMIQRLNVNTEVLSTYIRNSNTPIEYLRQKLPNIDKFLKGELEPTFNQVYALSKLINIPTGLLLLKEPIS”, “HMVDKSYIHNQQVASDTWTVQHNLGKYPAVSVADTGNNEVYGDVRHINENTVELKFSHPFSGVAFF” is higher in “soluble fraction (log2)” value: -0.995 for the first, 0.281 for the second.

Compared with “HMNVDSLPGEKAVVIKTIDNLRGTGQAVVNGLEWSAKSKDETIIDEGKVVRIVAVEGVKLVVEEE”, “HMAKRINVKLIMELSAGGLTQNEIASSRHFSKTSVNLVLKTARELNVSAADLREMSPEEAYRLFFPEK” is lower in “soluble fraction (log2)” value: 0.0762 for the first, -1.43 for the second.

“HMQFEIGDTVRVHVNIREGERERVQMFEGTVIAKRGSGVSETFTVRRVSYGVGVERVFPVNSPNV” and “HMFIRINQTQNSPRKSVQIVESKRDGHKVRTKILRHVGIAMDDVELQKLKSLAQDIIAKMTVETENASKQ” are within 0.2 log units of each other in “soluble fraction (log2)” value: 0.105 for the first, -0.00422 for the second.

“HMNSVLPQEVKSSLNDFFTKYAPGSIAQKLINHASFTGGKVVVTGVELTQTQADDLKKAFKDKFF” and “HMYTVVVGDSPSLIADKTGVPLKELTAMNPNLSDNFLPGKQLL” are within 0.2 log units of each other in “soluble fraction (log2)” value: 0.000827 for the first, 0.000825 for the second.

Compared with “HMQPAALEAQVIKLVRLHAPIKARQLATILANEFGQHVDRSTVNSLLYQLRAQGKVAQNAAYQWSLT”, “HMTDITSAITRLNKYNKSGTPLTIDSVTPEALQTLQAKVSSAFEIGAVNQQTYDDVTKDIATLQQYLSSA” is higher in “soluble fraction (log2)” value: -0.65 for the first, 0.15 for the second.

Compared with “HMKELFGQRLREQRLKQNLTLEQLAEKANLSPNYVGMVERGLKEPGLATIVKLLNGLNVSADTLL”, “HMETTMVEIKAEFTIRNRLDIPAMMEKAGYKDRGEFLSVLEKITGNYNWDRDVKKGDTFMVPSKLA” is lower in “soluble fraction (log2)” value: -0.036 for the first, -0.777 for the second.

Compared with “HMSSQGSLEKGYSALLDGRLDDAALAYGAALAANPMERDALLGLAYVAHSKGRREEAQALYRKVLR”, “HMKSLDDVISKFRPTGSENKIDFRKRVISEIHAQGFFKIKGSVNHVAKALGVTRYTVYNYLDKLND” is lower in “soluble fraction (log2)” value: 0.0715 for the first, -3.23 for the second.

Compared with “HMDASSTGFLGKHVQIVGLVSQPHLNGRRGVASRFDSNRRRYLVRLDEIDGHAEVVAFRPDNLVLSNLL”, “HMSQAVEISSVKTQIDGKSYYLHTIKQGQTLYGISKAYGVSVEELTTVNPETSKGLKVGQIIKVPDTKT” is higher in “soluble fraction (log2)” value: -0.573 for the first, 0.0299 for the second.

Going from “HMLFRGNGFNTLYDKQLRITQQGEFKDGRLWDGKYYRYSKAGELVRIEIYEQGRYAGNGVITDEDKA” to “HMTTKGGLVRDTVLNEFRDSEFTRREVELVLNGVASERTIRGALSEMVERGELTQVNFGISTRYRLNQ”, the “soluble fraction (log2)” value rises from -0.845 to -0.385.

First: HMFLTDHEVSKVARKRAHAEYLSSLSWRQRTFGDHGERSKNFEAWYKEHSHLYETEKLYKELYKN
Second: HMSDAKKRAFSKDEILYSLKNRPFTSFDIESLFDDESKKTFIGLLDKGEISEKKVAGTIFYYLR
The “soluble fraction (log2)” value of the first is lower: -0.567 for the first, -0.0659 for the second.

First: HMVNIPEIAKKFGKSTSEVFEQIQIGEKHEMEHTNDPKKARKIALDHLSDDMDYYKKLKKLG
Second: HMRMLLEERLDEIVKIVNERGSISNQELVKMFGASESTIRRDITTLANDNRVIRVHGGAMSVVS
The “soluble fraction (log2)” value of the first is higher: 0.27 for the first, -0.0564 for the second.

Going from “HMSTQYKTGHYKTTDALNLRASYSTSSNVLLTIPKGKTIVVTRVHNNEWGQVEYNGKTGWIYLEYTAYTES” to “HMKELFETLPDVLDAKLLASALSISKAGAYQLLNRPDFPTLQVGGWKLVTKQKLALWMEQHTN”, the “soluble fraction (log2)” value falls from 0.0697 to -3.21.

Going from “HMRLPNGYGGVTKLSGRRRKPYMVRKTIGWHIDEKTDKKVQDYVVIGYAATKSEALQMLADYNNNPFDV” to “HMRFQGKISDWNDEKGYGFVEPNGGGTRAFVHIKSFTDLPRRPINGDIIIYETTTDEKNRVQANNISFTR”, the “soluble fraction (log2)” value rises from -3.2 to 0.0181.

“HMLGIGANVQKIAQERKISLKELSRRAGIPYTTIYNMVKRDSSRVSPENLQKLADALGVEIGKLYG” and “HMTQEQKQQISDQLRAYVEQKGSGNKAAASMNGVSSATISKVLAGKWETISEDMWRSIAAQTGH” are within 0.2 log units of each other in “soluble fraction (log2)” value: 0.0652 for the first, 0.106 for the second.

Going from “HMATYTPYDKQGAKLWRVTAYLGMDSVTGKQRNMKKGGFKTKKEAQLYYNQVKLDFENGTLDQ” to “HMLGYQALASAFRSKVEAGIWPIGEAIPSEARLSKEYGVAVGTIRQAIAELAEEGILIKRHGKSTMVSSG”, the “soluble fraction (log2)” value rises from -1.22 to -0.873.

Going from “HMFDREKFIKLGQEFARVAFENVNKRATDRALKTAAKHYGLPSADELLARLGSSEIAARDVVAELYPNL” to “HMRSGFAFSEEEIKHLDNIVSPLLIKGQSIHHISIFHKDEVMMSERTLYSYVNNGLFSARNIDMPRTVRMR”, the “soluble fraction (log2)” value rises from -0.34 to 0.14.

Going from HMDSEQLSGLVNMGFSVYQAKTALEMFDNDIERAANYL to “HMKLSIEDLAAELIRKIEAGDIGNEQGKMPSERELLAIYPVSRYTLRQALNKLSKMGWIYQMQGRGSYIRF”, the “soluble fraction (log2)” value falls from -0.425 to -1.35.

Going from “HMKPSKYTLAIDSIPVHVTRKQMKSIRLRVTPLGEVRVSAPYGVKDSEIVEMVRSRKLWIESQQRA” to “HMTIDTSNDLLNQITEATSKGPISILELKDQLNVNASDIEGELRTLIDQHLVFLKDGMLQVIPFD”, the “soluble fraction (log2)” value rises from -0.992 to -0.0624.
